Measurements taken from patent US20030064396A1 (published 2003).

Key:
[1] = target: human AR fragment coding for the amino acids 325 to 919 (AR2) (human) (UniProt P10275); assay: cell-based or functional assay
[2] = target: T1, human androgen receptor, complete (expression vector pSG5AR) (human, UniProt P10275 1-920, 35S-methionine-labeled in the pull-down of Example 4 (in vitro translated, T7 TNT reticulocyte lysate)); assay: mammal hybrid test, VP16 fusion, luciferase reporter in PC3 cells
T1 construct: mature; also called complete AR; 35S-methionine-labeled androgen receptor
T1 sequence (looked up): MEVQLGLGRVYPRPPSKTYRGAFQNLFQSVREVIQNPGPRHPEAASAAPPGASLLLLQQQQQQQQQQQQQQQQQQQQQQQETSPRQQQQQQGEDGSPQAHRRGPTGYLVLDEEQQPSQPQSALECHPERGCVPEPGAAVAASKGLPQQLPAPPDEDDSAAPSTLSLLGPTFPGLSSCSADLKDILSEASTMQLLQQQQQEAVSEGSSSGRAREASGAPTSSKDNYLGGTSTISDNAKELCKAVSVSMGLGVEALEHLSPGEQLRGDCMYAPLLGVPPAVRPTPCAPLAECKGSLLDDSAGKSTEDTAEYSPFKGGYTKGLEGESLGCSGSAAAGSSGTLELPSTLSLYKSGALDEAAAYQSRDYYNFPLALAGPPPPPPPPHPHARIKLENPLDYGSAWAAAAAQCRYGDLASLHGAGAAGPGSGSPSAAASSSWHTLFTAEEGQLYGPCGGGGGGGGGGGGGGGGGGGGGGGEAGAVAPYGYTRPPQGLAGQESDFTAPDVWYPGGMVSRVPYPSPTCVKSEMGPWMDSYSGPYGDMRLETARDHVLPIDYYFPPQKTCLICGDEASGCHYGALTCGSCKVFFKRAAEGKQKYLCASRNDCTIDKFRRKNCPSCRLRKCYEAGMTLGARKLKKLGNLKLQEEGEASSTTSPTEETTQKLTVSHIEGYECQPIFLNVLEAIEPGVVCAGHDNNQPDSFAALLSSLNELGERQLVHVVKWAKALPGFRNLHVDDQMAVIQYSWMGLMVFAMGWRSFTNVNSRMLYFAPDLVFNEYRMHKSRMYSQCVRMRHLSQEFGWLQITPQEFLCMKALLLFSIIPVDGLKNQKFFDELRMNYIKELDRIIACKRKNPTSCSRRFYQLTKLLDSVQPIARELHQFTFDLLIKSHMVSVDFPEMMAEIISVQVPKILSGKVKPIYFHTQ

[3] = target: T1, human androgen receptor, complete …; assay: GST pull-down of 35S-labelled AR; binding ratio against GST-empty, corrected for the protein amounts by Western blot, Exp. 4
Description: (§1) A GST pull-down experiment is characterized by an experimental procedure, which allows binding of an in vitro expressed GST fusion protein to a similar in vitro expressed and radioactively labeled protein, subsequent separation from non-interacting proteins and detection and identification of the bound protein as a measure of the binding.

[4] = target: T1, human androgen receptor, complete …; assay: GST pull-down of 35S-labelled AR; binding ratio against GST-empty, corrected for the protein amounts by Western blot, Exp. 3
Description: as §1

[5] = target: T1, human androgen receptor, complete …; assay: GST pull-down of 35S-labelled AR; binding ratio against GST-empty, corrected for the protein amounts by Western blot, Exp. 2
Description: as §1

[6] = target: T1, human androgen receptor, complete …; assay: GST pull-down of 35S-labelled AR; binding ratio against GST-empty, corrected for the protein amounts by Western blot, Exp. 1
Description: as §1

Work on “two-hybrid clone with an insert comprising 327 base pairs coding for part of the ORF of KIAA1380 (ARAP3) (from UniProt Q15652 1915-2023)” yielded a yeast-2-hybrid screen with and without 10^-6 mol DHT; lacZ-positive clones (β-galactosidase assay) [1] of 40 times.

B1: ARAP3 fragment (AS 1430-1539 of Seq. ID No. 20) as fusion protein with VP16 (CMX-VP16-ARAP3-III) (other)
chain: DLLDAMHTLREKYGIKSHCHCTNKQNLQVGNFPTMNGVSQVLQNVLNHSNKISLCMPESQQQNTPPKSEKNGGSSPESDVGTDNKLTPPESQSPLHWLADLAEQKAREEK
notes: Expressed in transfected human PC3 cells; also called ID No. 20; not shown: VP16 fusion partner from the vector CMX-VP16
B1: binds [2].

B2: GST-ARAP3: ARAP3 fragment (AS 1735 to 1840 of Seq. ID No. 14) as a GST fusion protein (vector pGEX-KG) (other)
chain: LDAMHTLREKYGIKSHCHCTNKQNLQVGNFPTMNGVSQVLQNVLNHSNKISLCMPESQQQNTPPKSEKNGGSSPESDVGTDNKLTPPESQSPLHWLADLAEQKARE
notes: also called ARAP3 fusion protein; GST-ARAP3 spherical particles; not shown: glutathione S-transferase (GST) tag of the vector pGEX-KG (Pharmacia)
For B2, the “Ratio GST-ARAP3/GST-empty” value [3] was over 100 Ratio, the “Ratio GST-ARAP3/GST-empty” value [4] was over 100 Ratio and the “Ratio GST-ARAP3/GST-empty” value [5] was 1120 Ratio. For the same molecule, the “Ratio GST-ARAP3/GST-empty” value [6] was 26.5 Ratio.
